Assay results as given in PMC9767379, “Homologous chromosomes are stably conjoined for Drosophila male meiosis I by SUM, a multimerized protein assembly with modules for DNA-binding and for separase-mediated dissociation co-opted from cohesin” (PLOS Genetics, 2022).
Values joined by “and” are separate entries in the source; they are usually repeats but may differ in a detail not shown here. Equal values may be shown once.

T1: Strep-II-UNO_C (D. melanogaster, UniProt Q7JQU5 281-417)
T1 construct: source: Hi5 insect cells, baculovirus, co-expressed with MBP-SNM; purified (Strep-Tactin, SEC); not shown: twin Strep-II, N-terminal, kept
T1 sequence (looked up): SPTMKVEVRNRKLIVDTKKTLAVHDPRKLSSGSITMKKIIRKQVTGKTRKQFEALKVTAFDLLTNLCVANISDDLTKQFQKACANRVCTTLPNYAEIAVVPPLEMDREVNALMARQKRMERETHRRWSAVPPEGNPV

B1: MBP-SNM (natural protein, D. melanogaster, UniProt Q9W0F4 1-973, looked up)
chain: MSDISFDDAVLNDSQASNQMDFEIREECSIAPNDEPVCVDGTVGDATNKSLLQMILSRKRLSPTNKRNSHIESVAKYWGEFYLDSPTAALVALLQFVVEVSGSHYQIPDDTSMPFSYSDILSNSSSHFSNTHIYPLIRKPADVFVNQVGSFLNALLLVANKFRSDSYQLFLVQLTNFVMACSESNIRTFRHTATMIGLKIMTILSDLKSLDDEIAMTVWMQMFNSMFVARSRDIVTDIRLLCISELGQWFARYPHCHLQPTSLRIFYEALNDGSGDVIQCSLDNISVLCRKDVLFSEIVALTSEFREILVELCLGKEDAIAEKSVQFLTHFHVLSAEILTDDVCRVLEQLIMAANRGLAQAAADLFILRRNGLDGETFCQRVKHLLQLFIECGHEQADYLVDSLIDNCELVLDWKSMIAVLLENPKSRELSDIHCSSLIAILLAGVKQATAGEIPPGRYTKDLKREPRQGAQERATKCLAPVLPELLRTYANRLQDIERLLELPKYFCFDYYHEQNRMGQLNELVEHFELIIFDQTSSTTVLQITVKTLEFLNRMIPIPLTKQLLNSAVTNYKMAWHRTQDTSPSRSTHNESNRLLATLRLLTVLSGHFNLSKWDLTEPLLFSLKMLLRQRRLPNGDDLPPEAFSLYLKACFCCLCWDMENLEGTALNNVDMDEYCDVLHHNLEDYLYVTFSLVGKSNTEPLAYPCFSYTCDLFVLHGNLCGSSNPSIRSVAHVPSGNELDILEGFLMEHFLELSPSDLMLETNSDQLQRIRSILTSYLKVVCLGVVPTMRASKFYEYYVKYHAPFGDVMRCSMELALQRNPIHFAMTMLHTCLLLYAKVFPDDTRHAAGQRALRPAEFSELMELANRLAKILISNPMEHRECVIALHRSGILFVFELAQKQPTEATKKLPFLRVLKVFVPLLLVQDKTRILNFFEPYEQLIIPTCNRNDIAHLKEYRNALRPRKTKSYPQAT
notes: SNM (stromalin in meiosis; SA-2), D. melanogaster; source: purified (Strep-Tactin, SEC); not shown: MBP, N-terminal, kept
B2: MBP-UNO_N (domain or fragment, D. melanogaster, UniProt Q7JQU5 1-73, looked up)
chain: MPALTHQILTMQRAPPLNLSFKIQLLSGQNVILVECSGYESELFLPQIVGERITMQNVIQDRRCCAESMLLRD
notes: UNO, D. melanogaster, N-terminal domain aa 1-73; found as a tetramer (SEC peak 1) and as a dimer (SEC peak 2); source: E. coli BL21, purified (amylose/MBP Trap, ion exchange, SEC); not shown: His6, N-terminal, kept; MBP, N-terminal, kept
B3: Mod(mdg4)_CP (purified) (domain or fragment)
chain: MADDEQFSLCWNNFNTNLSAGFHESLCRGDLVDVSLAAEGQIVKAHRLVLSVCSPFFRKMFTQMPSNTHAIVFLNNVSHSALKDLIQFMYCGEVNVKQDALPAFISTAESLQIKGLTDND

How the values were obtained:
Strep-II-UNO_C = biological target: T1, Strep-II-UNO_C; assay: SEC-MALS + other: mass photometry; purified SU_C complex; SEC-MALS in 50 mM HEPES pH 7.5, 1 mM TCEP, 300 mM NaCl, 5–10 μM; mass photometry in 30 mM HEPES pH 7.8, 150 mM NaCl, 3 μM diluted 1:100; conditions: both partners purified
[1] = biological target: the molecule itself; assay: SEC-MALS; purified protein alone, 50 μL at 5–10 μM, 50 mM HEPES pH 7.5, 1 mM TCEP, 300 mM NaCl

Binder	stoichiometry N (Strep-II-UNO_C)	stoichiometry N [1]
B1	1	–
B2	–	4 and 2
B3	–	6
